Assays:
PD-1 expressed on cells [1] = biological target: T1, PD-1 expressed on cells (UniProt Q15116 25-288); assay: flow cytometry, 1:1 co-culture of U937 PD-1+ and U937 PD-1- cells, detection with anti-human IgG PE, % positive cells
T1 construct: whole, on cells; also called U937 PD-1+ cells; U937 PD-1+ CD127+ cells

[2] = biological target: T2, Recombinant hPD1 (Sino Biologicals, reference 10377-H08H) (human, UniProt Q15116 25-167); assay: ELISA, recombinant human PD-1 immobilised, anti-human Fc peroxidase
T2 construct: Bought reagent, immobilised on plastic; also called Human recombinant PD-1; rPD1
Protocol: (§1) A. PD-1 binding ELISA assay. Human recombinant PD-1 (rPD1) protein was immobilized, and antibodies were added at different concentrations. Revelation was performed with an anti-human Fc antibody coupled to peroxidase. Colorimetry was determined at 450 nm using TMB substrate. […] All constructions tested comprise a […] linker between the Fc and IL-7 domain.
For activity ELISA assay, recombinant hPD1 (Sino Biologicals, Beijing, China; reference 10377-H08H) was immobilized on plastic at 0.5 μg/ml in carbonate buffer (pH9.2) and purified antibody were added to measure binding.

[3] = biological target: T3, biotinylated Human PD1 (AcroBiosystems, reference EP-101) (human, UniProt Q15116 25-167, limits assumed, biotinylated); assay: competitive ELISA, PD-L1 immobilised, antibody mixed with biotinylated human PD-1; PD1/PDL1 antagonist activity
T3 construct: also called biotinylated recombinant human PD-1; Biotin-PD-1Fc
Protocol: as §1
Purified antibody (at different concentrations) were mixed with 0.66 μg/ml final (fix concentration) of biotinylated Human PD1 (AcroBiosystems; USA; reference EP-101) to measure competitive binding for 2 h at 37° C.

PD-1 expressed on cells [4] = biological target: T1, PD-1 expressed on cells; assay: flow cytometry, 1:1 co-culture of U937 PD-1+ and U937 PD-1- cells, detection with anti-human IgG PE, % positive cells [middle panel]
PD-1 expressed on cells [5] = biological target: T1, PD-1 expressed on cells; assay: flow cytometry (FACs analysis), U937 PD-1+ CD127+ cells co-cultured with U937 PD-1- CD127+ cells, detection with anti-human IgG PE, % cell binding
Protocol: (§2) U937 cells expressing CD127+ or co-expressing CD127+ and PD-1+ cells were stained with a cell proliferation dye (CPDe450 or CPDe670) and co-cultivated at ratio 1:1 prior incubation with different concentrations of anti PD-1 IL-7 bifunctional molecules. Staining with and anti-human IgG PE and pSTAT5 activation was quantified after incubation by flow cytometry. A. EC50 binding (nM) was calculated for each cell type and each construction. B. EC50 pSTAT5 (nM) was calculated for each cell type and each construction.
(§3) Finally, the specific cis-targeting and cis-activity of the different anti PD-1 IL-7 constructions were analyzed in a co-culture assay. U937 PD-1+ CD127+ cells were mixed with PD-1− CD127+ cells (ratio 1:1), then incubated with the different constructions at escalating doses. The binding and the IL-7R signaling (pSTAT5) was quantified by flow cytometry. EC50 (nM) of the binding and the pSTAT5 activation was determined for each construction and for each PD-1+ and PD-1− cell population (FIG. 4A and B).
(§4) U937 transduced with CD127 and PD-1 were mixed with U937 transduced with CD127+ only.

PD-1 expressed on cells [6] = biological target: T1, PD-1 expressed on cells; assay: as above; remark: listed apart in the source
Protocol: as §2, §3, §4

T1 sequence (Q15116 25-288): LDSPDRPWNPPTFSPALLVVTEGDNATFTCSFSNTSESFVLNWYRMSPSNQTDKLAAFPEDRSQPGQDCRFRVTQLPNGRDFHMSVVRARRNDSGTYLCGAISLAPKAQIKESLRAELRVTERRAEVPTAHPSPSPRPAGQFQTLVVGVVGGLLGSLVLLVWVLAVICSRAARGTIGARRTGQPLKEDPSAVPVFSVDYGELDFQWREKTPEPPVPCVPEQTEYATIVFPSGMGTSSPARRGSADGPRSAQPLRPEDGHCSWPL
T2 sequence (Q15116 25-167 limits assumed): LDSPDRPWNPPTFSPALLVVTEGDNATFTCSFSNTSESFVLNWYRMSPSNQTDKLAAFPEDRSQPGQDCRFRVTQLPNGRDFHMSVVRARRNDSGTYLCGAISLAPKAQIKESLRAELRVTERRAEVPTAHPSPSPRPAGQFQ
T3 sequence (Q15116 25-167 limits assumed): as above

EC50 (read off the curve) (PD-1 expressed on cells [1])	EC50 [2]	EC50 [3]	EC50 (read off the curve) (PD-1 expressed on cells [4])	EC50 (read off the curve) (PD-1 expressed on cells [5])	EC50 (read off the curve) (PD-1 expressed on cells [6])	Binder
~0.02 nM	0.238 nM	5.01 nM	–	–	–	anti PD-1*1 (antibody, human IgG1, kappa, N297A, One-armed control: like construction 3 but without IL-7; Chain A is the Fc chain (knob), chain B the anti PD-1 heavy chain (hole)) DKTHTCPPCPAPELLGGPSVFLFPPKPKDTLMISRTPEVTCVVVDVSHEDPEVKFNWYVDGVEVHNAKTKPREEQYASTYRVVSVLTVLHQDWLNGKEYKCKVSNKALPAPIEKTISKAKGQPREPQVYTLPPCRDELTKNQVSLWCLVKGFYPSDIAVEWESNGQPENNYKTTPPVLDSDGSFFLYSKLTVDKSRWQQGNVFSCSVMHEALHNHYTQKSLSLSPGK heavy: not shown light: DVVMTQSPLSLPVTLGQPASISCRSSQSLVHANTNTYLEWYQQRPGQSPRLLIYKVSNRFSGVPDRFSGSGSGTDFTLKISRVEAEDVGVYYCFQGTHVPNTFGQGTKLEIKRTVAAPSVFIFPPSDEQLKSGTASVVCLLNNFYPREAKVQWKVDNALQSGNSQESVTEQDSKDSTYSLSSTLTLSKADYEKHKVYACEVTHQGLSSPVTKSFNRGEC
–	0.021 nM	–	~0.005 nM	~0.02 nM	~0.02 nM	anti PD-1*2 (antibody, human IgG4 S228P, kappa, V domains shown, Anti PD-1 antibody with 2 anti PD-1 arms and no cytokine; also called anti PD-1 alone; anti PD-1 control) VH: QIQLVQSGSELKKPGASVKVSCKASGYTFTHYAMNWVRQAPGQGLEWMGWINTNTGEPTYAQGFTGRFVFSLDTSVSTAYLQISSLKAEDTAVYYCAREREPGMDNWGQGTLVTVSS VL: DVVMTQSPLSLPVTLGQPASISCRSSQSLVHANTNTYLEWYQQRPGQSPRLLIYKVSNRFSGVPDRFSGSGSGTDFTLKISRVEAEDVGVYYCFQGTHVPNTFGQGTKLEIKR

— patent publication US20240182571A1 (OSE IMMUNOTHERAPEUTICS, published 2024)
